# Measured values published in the nanobody polyreactivity screen of Harvey et al. (2022).
# Test: yeast display, Sf9 membrane polyspecificity reagent, FACS + sequencing; frameworks hold sequencing errors
# How it was run: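 Polyreactivity labels are assigned by the sorting gate from which each nanobody was recovered. The gates were low and high (top ~1%), set on anti-HA fluorescence for expression and streptavidin fluorescence for reagent binding. Before sorting, galactose-induced (36–48 hours) yeast display cells were stained for 1 hour at 4 °C with 10% biotinylated, detergent-solubilized Sf9 membrane reagent.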
row,Sequence,polyreactivity (PSR sort gate)
1,EEELVESGGGLVQAGGSLRLSCAASGSTFVSNAMGWYRQAPGKERELVAAISSSGGSTYYADSVKGRFTISRDNAKNTVYLQMNSLKPEDTAVYYCVDYYIGYTHNYNYWGQGTQVTVSS,low polyreactivity
2,EEELVESGGGLVQAGGSLRLSCSASGSTFLVYSMGWYRQAPGKERELVAVITNSTVRTYYADSVKGRFTISRDNAKNTVYLQMDRLKPEDTAVYYCNADKEFAVLGQGMDYWGQGTQVTVSS,low polyreactivity
3,EVQLVESGGGLVQAGGSLRLSCAASVSTFGSNAMGWYRQAPGKERELVAAITNGGSTNYADSVKGRFTISRDNEKNTVYLQMNSLKPEDTAVYYCNAVQSAYNKFWIALWGGYWGQGTQVTVSS,low polyreactivity
4,HAQLQESGGGLVQAGGSLRRSCAASGSIFRFSGMGWYRLAPGKERELVASIGFGSITYYADRVNGRFTISRDNANNTVYLQMNSLKPEDTAVYYCAVQVQDESWLDYWGQGTQVTVSC,low polyreactivity
5,HAQLQESGVGLVQAGGSLRRSCAASGSIFRFSGMGWYRRATGKERELVASIGFGSITYYADRVKVRFTISRDNANNTVYLQMTSLKPEDTAVYYCAVQVQDESWLDYWGQGTQVTVSC,low polyreactivity
6,HVKLVDSGGGLVKAGGSLRLTCAASGITIYTNDMGWSRQARGKERELVAAITTNDGDTYYADSVKGRFTISRDNEKNTVYLQMNSLKPEDNAVYYCAADSGSTSEYEYWGQGTQVTVSS,low polyreactivity
7,HVQHVESGGGLVQAGGSLRLSCAASGRTFGYYALGWYRQAPGKERELVARISTRGGSTNYADSVKGRFTISRDNAKNTVFLQMNSLKPEDTAVYSCYARGGYGGGYDYWVQGTQVTVSS,high polyreactivity
8,HVQIVESGRGLVPAGGSLRLSCAASGFIFIRYSMGWSRQAPGKERELVAVISSGGGSTDYADSVKGRFTISRDYAKNTVFLQMISLKPEDTAVYYCAADFLPTYDPYYFWGQGTQVSVSS,low polyreactivity
9,HVQLEESGGGLVQAGGSLRLSCAASGRIFYPYAMGWYRQAPGKERELVAAISRSGGSTYYADSVKGRFTISRDNAKNTVYLQMNSLKPEDTAVYYCATGFYRAISHHGYDYWGQGTQVTVSS,low polyreactivity
10,HVQLGESGGGLVQAGGSLRLSCAASGRISVFYTMGGYRQAPGKEREMVAVIRTSGGRTNYADSVKGRFTISRDNAKNTVYLQMNSLKPEDTAVYYCAARVVRYGYKYYYWGQGTQVTVSS,low polyreactivity
11,HVQLLESGGGLVQAGGSLRLSCAASGSTFVYYAMGWYRQAPGKERELVAVITRGGRTYYADSVKGRFTISRDNAKTTVYLQMNSVKPEDSEVYYCNKVTPIYHDTVLDYWGQGTQVTVSS,high polyreactivity
12,HVQLQESGGGLVQAGGSLRLSCAASGNISYSRNMGWYRQAQGKERELVAAIDRGAITYYADSVKGRFTISRDNAKNTVDLQIYSLNPEDTAVYYCAAEYHDRWDHRYWGQGTQVTVSS,high polyreactivity
13,HVQLQESGGGLVQAGGSLRLSCAASGSIFQATYMGWYRQAPGKEREFVASITNGSITNYADSVKGRFTIGRDNEKDTLYLQMNSLKPEDSAVYYCAVDRQYIPAFHYWGQGTQVTVSS,low polyreactivity
14,HVQLQESGGGLVQAGGSLRLSCAASGSIFQATYMGWYRQAPGKEREFVASITYGSITNYADSVKGRFTIGRDNAKDTLYLQMNSLKPEDTAVYYCAVDRHYIPDFHYWGQGTQVTVSS,low polyreactivity
15,HVQLQESGGGLVQAGGSLRLSCAASGSIYQATYMGWYRQAPGKEREFVASITYGSITNYADSVKGRFTIGRDNANDTLYLQMNSLKPEDTAVYYCSVDRHYYWGQGTQVTVST,low polyreactivity
16,HVQLQESGGGLVQAGVSLRLSCAASGNISYSRNMGWYRQAPGKERELVAAIDRGAITYYADSVKGRFTISRDNAKNTVYLQIYSLKPEDTAVYYCAAEYHDRWDHRYWGQGTQVTVSS,high polyreactivity
17,HVQLQESGGGLVQEGGSLRLSCAASGSIFQATYMGWYRQAPGKELEFVASITYGSITNYADSVKGSFTIGRDNAKDTLYLQMNSLKPEDTAVYYCAVDRHYIPDFHYWGQGTQVTVSS,low polyreactivity
18,HVQLQESGGGMVQASGSPRLSCPASGNIFDADIMGWYRQAPGKQCELVASITDGGSTNYADSEKGRFTISSDNAKNTVYLQMNSLKPEDTAVYYCAAIAYPDIPTYFDYDSDYFYWGQGTHVTVSS,high polyreactivity
19,HVQLVDSGGVLVQAGGSLRLSCAASGSIYDANAMGRYRQAPGKERELVAAISSSGGITYYADSVKGRFTISRDNAKNTVYLQMNSLKPEDTAVYYCVAEYGYIDYSYLFWSDYWGQGTQVTVSS,high polyreactivity
20,HVQLVESAGGLVQAGGRLSLSCAAYGSICDRYAMGWYRQAPGKEREKVAAIYSSGGRTYYADSVKGRFTISRDNAKNTVYLQMKSLKPEDTAVYYCNAEFWGGTPVAFSADYEYWGQGTQVTVSS,high polyreactivity
21,HVQLVESGGGLVQAGASLRLSCAASGSTFSTYGMGCSRQAPGKVRELVADISDSTGSTYYADSVKGRFTISRDNAKYTVYLQMNSLKPEDNAVYYCAADSGEPSWGYDYWGQGTQVTVSS,low polyreactivity
22,HVQLVESGGGLVQAGGCLRLSCAASGIIFLYNAMGWYRQAPGKERELVATITWSGGSTYYADSVKGRFTISRDNAKITVYLQMKSLKPEDTAVYYCAADYYYGYEFGYWGQGTQVTVSS,low polyreactivity
23,HVQLVESGGGLVQAGGSLRISCAASGRIFGRNAMGWYRQAPGTERELVATISGGGSTYYADSVKGRFTISRDNAKNTVYFQMNSLKPEDTAVFYCAVGHRWWGAYAGYDYWGQGTQVTVSS,low polyreactivity
24,HVQLVESGGGLVQAGGSLRISCAASGRTFYKNAKGRYRQAPGKEREFVASISVSGGRTYYADSVKGRFTISRDNAKNTVYLQMNILNPEDSAVYYCNARASPLSQRDYWGQGTQVTVSS,low polyreactivity
25,HVQLVESGGGLVQAGGSLRLICGASGFTFPNYAMGGYRHAPGKERELVAAITSGGGRTNYADSVKGRFTISRDNAKITVYLQMNSLKPADTAVYYCNAEKTYLGSRYRPYNYWGQGTQVTVSS,low polyreactivity
26,HVQLVESGGGLVQAGGSLRLSCAASGFMFSGYAMGWYRQAPGKVRELVAAITWSGSNTFYADSVKGRFTISRDNAKNTVYLQRNSLKPEDTAVYYCNAVSKYKRSDYYYWGQGTQVTVSS,high polyreactivity
27,HVQLVESGGGLVQAGGSLRLSCAASGFTIKYYGMGWYRQAPGKERELVAAISRRGGSTYYADSVKGRFTISRDNAKNTVYLQMNSLKPEDTAVYYCNAQFARSSGFNYWGQGTQVTVSS,high polyreactivity
28,HVQLVESGGGLVQAGGSLRLSCAASGINFSWYPMGWYRQAPGKERELVAAISSSGGTTFYADSVKGRFTISRDKAKNTVYLQMNSLKPEDTAVYYCAVVGPPYYTWRVWRPAYDYWGQVTQVTVSS,high polyreactivity
29,HVQLVESGGGLVQAGGSLRLSCAASGLNFLYYGMGWYRQAPGKERELVAAISSGGGTYYADSVKGRFTISRDNAKNTVYLQMNSLKPEDTAVYYCAVDPQWTYWSTYRYDYWGQGTQVTVSS,low polyreactivity
30,HVQLVESGGGLVQAGGSLRLSCAASGRIFKYYAMGWYRQAPGKERELLAAITYSGGSTNYADSVKGRFTISRDNAKNTVYLQMKSLKPEDTAVYYCNAYSYRNFLSHYNYWGQGTQVTVSS,high polyreactivity
